Assay results: patent US20230227565A1 (OSE IMMUNOTHERAPEUTICS, published 2023)

Experiments:
[1] = target: T1, human CD127 (Interleukin-7 receptor subunit alpha) (human, UniProt P16871 21-459); test: flow cytometry on ALL cell lines, 10 ug/mL antibody, fold change of PE geometric mean against isotype control
T1 construct: Endogenous CD127 on human ALL cell lines (HPB-ALL, DND41, 697, NALM6, REH) and on patient cells; no signal peptide limits are stated; also called IL7R-a; IL-7R
T1 sequence: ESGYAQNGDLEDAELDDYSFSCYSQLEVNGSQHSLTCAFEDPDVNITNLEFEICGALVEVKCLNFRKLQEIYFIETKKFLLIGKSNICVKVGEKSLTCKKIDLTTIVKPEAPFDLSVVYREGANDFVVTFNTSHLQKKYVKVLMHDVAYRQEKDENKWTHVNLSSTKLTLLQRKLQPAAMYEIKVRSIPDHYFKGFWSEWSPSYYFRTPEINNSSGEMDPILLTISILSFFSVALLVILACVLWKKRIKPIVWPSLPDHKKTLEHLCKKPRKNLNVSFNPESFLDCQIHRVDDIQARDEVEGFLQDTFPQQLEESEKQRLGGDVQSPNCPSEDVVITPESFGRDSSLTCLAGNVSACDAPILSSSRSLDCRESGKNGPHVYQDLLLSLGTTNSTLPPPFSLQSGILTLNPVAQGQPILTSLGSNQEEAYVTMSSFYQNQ

[2] = target: T2, recombinant hCD16a/FcγRIIIa (human, UniProt P08637 17-208); test: ELISA, recombinant FcγR immobilized at 2 µg/ml, detection with peroxidase-labeled anti-human IgG
T2 construct: Bought recombinant protein, immobilized on plastic at 2 µg/ml

recombinant hCD64/FcγRI = target: T3, recombinant hCD64/FcγRI (human, UniProt P12314 16-288); test: as above
T3 construct: Bought recombinant protein, immobilized on plastic at 2 µg/ml

[3] = target: T4, recombinant hCD32a/FcγRIIa (human, UniProt P12318 36-218); test: as above
T4 construct: Bought recombinant protein, immobilized on plastic at 2 µg/ml
T4 sequence (looked up): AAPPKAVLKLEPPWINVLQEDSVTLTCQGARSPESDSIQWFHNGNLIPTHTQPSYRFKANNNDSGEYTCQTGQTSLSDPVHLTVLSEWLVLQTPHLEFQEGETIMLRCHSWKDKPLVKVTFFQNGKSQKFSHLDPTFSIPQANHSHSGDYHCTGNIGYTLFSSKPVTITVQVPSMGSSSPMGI

T3 sequence (P12314 16-288 limits assumed): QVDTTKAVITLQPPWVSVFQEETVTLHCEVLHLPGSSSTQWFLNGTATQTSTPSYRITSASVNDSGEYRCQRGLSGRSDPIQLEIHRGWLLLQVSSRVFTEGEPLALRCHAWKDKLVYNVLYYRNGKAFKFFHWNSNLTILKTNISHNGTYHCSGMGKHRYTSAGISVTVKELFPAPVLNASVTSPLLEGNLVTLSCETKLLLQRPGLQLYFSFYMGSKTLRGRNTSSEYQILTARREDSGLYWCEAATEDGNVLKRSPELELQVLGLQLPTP
T2 sequence (P08637 17-208 limits assumed): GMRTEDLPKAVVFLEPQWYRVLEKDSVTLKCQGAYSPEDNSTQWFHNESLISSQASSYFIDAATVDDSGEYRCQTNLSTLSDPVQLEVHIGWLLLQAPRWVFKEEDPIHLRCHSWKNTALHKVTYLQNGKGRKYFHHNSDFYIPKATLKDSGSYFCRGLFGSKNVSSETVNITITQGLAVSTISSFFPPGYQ

binding result [1]: binds
binding result [2]: no binding
binding result (recombinant hCD64/FcγRI): no binding
binding result [3]: no binding
B1: N13B2-hVL6 (antibody, human IgG4 S228P, kappa)
heavy: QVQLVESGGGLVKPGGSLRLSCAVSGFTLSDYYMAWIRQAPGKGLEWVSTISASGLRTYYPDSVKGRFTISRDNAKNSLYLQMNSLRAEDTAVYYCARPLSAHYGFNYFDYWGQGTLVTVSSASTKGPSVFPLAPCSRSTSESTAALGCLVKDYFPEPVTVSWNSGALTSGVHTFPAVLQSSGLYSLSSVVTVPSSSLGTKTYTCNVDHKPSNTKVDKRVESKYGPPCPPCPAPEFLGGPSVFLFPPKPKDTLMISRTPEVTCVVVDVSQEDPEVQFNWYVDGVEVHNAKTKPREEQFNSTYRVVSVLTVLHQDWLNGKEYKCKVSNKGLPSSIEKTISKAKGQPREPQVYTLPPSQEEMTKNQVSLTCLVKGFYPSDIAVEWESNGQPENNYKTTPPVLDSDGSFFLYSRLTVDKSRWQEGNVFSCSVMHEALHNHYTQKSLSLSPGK
light: DIQMTQSPSSLSASVGDRVTITCRTSEDIYQGLAWYQQKPGKAPKLLLYSANTLHIGVPSRFSGSGSGTDYTLTISSLQPEDFATYYCQQYYDYPLAFGGGTKVEIKRTVAAPSVFIFPPSDEQLKSGTASVVCLLNNFYPREAKVQWKVDNALQSGNSQESVTEQDSKDSTYSLSSTLTLSKADYEKHKVYACEVTHQGLSSPVTKSFNRGEC
notes: Humanized antagonist anti-CD127 IgG4 antibody; also called NB13B2-hVL6; N13B6-hVL6; copies: 2 + 2
